Source: patent US5830703
Where no end group is shown, it is not given here.

Target: sodium channel

| Binder | flow of ^22 Na into cells |
| --- | --- |
| RKKWNKWALSR (ends and bridges not checked) [proadrenomedullin N-terminal 10-20 peptide (proAM-N(10-20))] | 70% |
| ARLDVASEFRKKWNKWALSR (ends and bridges not checked) [proadrenomedullin N-terminal 20 peptide (proAM-N20)] | 30% |
